Measured values from patent US20230295330A1 (Seagen, published 2023).

T1: human CD228 (R&D Systems Custom02; Lot DCWR021505A) (human, UniProt P08582 20-709, limits assumed)
T1 construct: Bought custom protein coated on ELISA plates; also called CD228 protein; melanotransferrin
T1 sequence (looked up): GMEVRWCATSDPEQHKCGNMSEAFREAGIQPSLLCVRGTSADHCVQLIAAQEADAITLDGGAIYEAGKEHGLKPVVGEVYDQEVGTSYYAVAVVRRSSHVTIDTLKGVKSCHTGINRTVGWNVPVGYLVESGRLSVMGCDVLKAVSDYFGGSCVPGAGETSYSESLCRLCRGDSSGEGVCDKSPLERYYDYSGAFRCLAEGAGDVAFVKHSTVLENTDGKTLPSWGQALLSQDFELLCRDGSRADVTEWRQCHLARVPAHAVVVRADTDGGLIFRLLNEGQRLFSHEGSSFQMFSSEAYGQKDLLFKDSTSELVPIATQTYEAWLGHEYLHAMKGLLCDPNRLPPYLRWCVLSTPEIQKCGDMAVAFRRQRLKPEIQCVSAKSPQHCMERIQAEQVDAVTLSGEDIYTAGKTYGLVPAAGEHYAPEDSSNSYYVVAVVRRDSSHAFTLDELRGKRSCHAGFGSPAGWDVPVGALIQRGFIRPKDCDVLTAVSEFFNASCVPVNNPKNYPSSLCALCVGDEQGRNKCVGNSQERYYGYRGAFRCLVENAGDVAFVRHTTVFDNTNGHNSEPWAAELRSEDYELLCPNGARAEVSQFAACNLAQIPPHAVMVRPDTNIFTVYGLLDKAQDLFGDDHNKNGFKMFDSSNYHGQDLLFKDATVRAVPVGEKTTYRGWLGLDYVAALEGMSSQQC

T2: CD228 on A375 and A2058 cells (human, UniProt P08582 20-709)
T2 construct: whole, on cells; GPI-anchored cell surface protein; also called CD228 on A375 cells; CD228 on A2058 cells
T2 sequence (looked up): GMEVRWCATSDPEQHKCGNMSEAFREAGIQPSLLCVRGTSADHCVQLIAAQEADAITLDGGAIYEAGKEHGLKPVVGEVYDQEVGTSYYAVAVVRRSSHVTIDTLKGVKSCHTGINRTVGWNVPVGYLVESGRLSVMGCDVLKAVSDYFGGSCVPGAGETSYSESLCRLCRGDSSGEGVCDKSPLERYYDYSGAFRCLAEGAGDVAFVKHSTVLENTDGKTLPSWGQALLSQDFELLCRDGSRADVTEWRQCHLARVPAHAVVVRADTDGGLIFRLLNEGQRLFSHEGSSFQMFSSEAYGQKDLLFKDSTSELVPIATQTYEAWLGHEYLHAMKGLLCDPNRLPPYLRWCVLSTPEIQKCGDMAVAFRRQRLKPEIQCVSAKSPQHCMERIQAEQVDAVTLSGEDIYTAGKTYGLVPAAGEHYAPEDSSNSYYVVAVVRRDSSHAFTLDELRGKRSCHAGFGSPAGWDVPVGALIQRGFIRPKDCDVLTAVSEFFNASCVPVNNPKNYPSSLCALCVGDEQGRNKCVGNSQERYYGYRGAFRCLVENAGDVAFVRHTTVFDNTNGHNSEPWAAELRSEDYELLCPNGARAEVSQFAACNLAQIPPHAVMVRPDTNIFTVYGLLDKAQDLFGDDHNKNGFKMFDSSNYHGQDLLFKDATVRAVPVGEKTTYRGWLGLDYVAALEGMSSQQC

B1: hL49 (antibody, V domains shown)
VH: QVQLQESGPGLVKPSETLSLTCTVSGDSITSGYWNWIRQPPGKGLEYIGYISDSGITYYNPSLKSRVTISRDTSKNQYSLKLSSVTAADTAVYYCARRTLATYYAMDYWGQGTLVTVSS
VL: DFVMTQSPLSLPVTLGQPASISCRASQSLVHSDGNTYLHWYQQRPGQSPRLLIYRVSNRFSGVPDRFSGSGSGTDFTLKISRVEAEDVGVYYCSQSTHVPPTFGQGTKLEIK
notes: Humanized antibody; Only variable domains are tied to it; also called hL49 HALC; hL49 WT
B2: hL49_34_Tyr (antibody, V domains shown)
VH: QVQLQESGPGLVKPSETLSLTCTVSGDSITSGYWNWIRQPPGKGLEYIGYISDSGITYYNPSLKSRVTISRDTSKNQYSLKLSSVTAADTAVYYCARRTLATYYAMDYWGQGTLVTVSS
VL: DFVMTQSPLSLPVTLGQPASISCRASQSLVHSDGNTYLYWYQQRPGQSPRLLIYRVSNRFSGVPDRFSGSGSGTDFTLKISRVEAEDVGVYYCSQSTHVPPTFGQGTKLEIK
notes: hL49 variant with the light chain CDR-L1 histidine 34 changed to tyrosine; also called hL49_H34Y; hL49_Tyr
B3: hL49_34_Gln (antibody, V domains shown)
VH: QVQLQESGPGLVKPSETLSLTCTVSGDSITSGYWNWIRQPPGKGLEYIGYISDSGITYYNPSLKSRVTISRDTSKNQYSLKLSSVTAADTAVYYCARRTLATYYAMDYWGQGTLVTVSS
VL: DFVMTQSPLSLPVTLGQPASISCRASQSLVHSDGNTYLQWYQQRPGQSPRLLIYRVSNRFSGVPDRFSGSGSGTDFTLKISRVEAEDVGVYYCSQSTHVPPTFGQGTKLEIK
notes: hL49 variant with the light chain CDR-L1 histidine 34 changed to glutamine
B4: hL49_34_Ala (antibody, V domains shown)
VH: QVQLQESGPGLVKPSETLSLTCTVSGDSITSGYWNWIRQPPGKGLEYIGYISDSGITYYNPSLKSRVTISRDTSKNQYSLKLSSVTAADTAVYYCARRTLATYYAMDYWGQGTLVTVSS
VL: DFVMTQSPLSLPVTLGQPASISCRASQSLVHSDGNTYLAWYQQRPGQSPRLLIYRVSNRFSGVPDRFSGSGSGTDFTLKISRVEAEDVGVYYCSQSTHVPPTFGQGTKLEIK
notes: hL49 variant with the light chain CDR-L1 histidine 34 changed to alanine; also called hL49_H34A
B5: hL49_27D_Gln (antibody, V domains shown)
VH: QVQLQESGPGLVKPSETLSLTCTVSGDSITSGYWNWIRQPPGKGLEYIGYISDSGITYYNPSLKSRVTISRDTSKNQYSLKLSSVTAADTAVYYCARRTLATYYAMDYWGQGTLVTVSS
VL: DFVMTQSPLSLPVTLGQPASISCRASQSLVQSDGNTYLHWYQQRPGQSPRLLIYRVSNRFSGVPDRFSGSGSGTDFTLKISRVEAEDVGVYYCSQSTHVPPTFGQGTKLEIK
notes: hL49 variant with the light chain CDR-L1 histidine 27D changed to glutamine
B6: hL49_3X_Tyr (antibody, V domains shown)
VH: QVQLQESGPGLVKPSETLSLTCTVSGDSITSGYWNWIRQPPGKGLEYIGYISDSGITYYNPSLKSRVTISRDTSKNQYSLKLSSVTAADTAVYYCARRTLATYYAMDYWGQGTLVTVSS
VL: DFVMTQSPLSLPVTLGQPASISCRASQSLVYSDGNTYLYWYQQRPGQSPRLLIYRVSNRFSGVPDRFSGSGSGTDFTLKISRVEAEDVGVYYCSQSTYVPPTFGQGTKLEIK
notes: hL49 triple mutant: all three light chain CDR histidines changed to tyrosine
B7: hL49_27D_Ala (antibody, V domains shown)
VH: QVQLQESGPGLVKPSETLSLTCTVSGDSITSGYWNWIRQPPGKGLEYIGYISDSGITYYNPSLKSRVTISRDTSKNQYSLKLSSVTAADTAVYYCARRTLATYYAMDYWGQGTLVTVSS
VL: DFVMTQSPLSLPVTLGQPASISCRASQSLVASDGNTYLHWYQQRPGQSPRLLIYRVSNRFSGVPDRFSGSGSGTDFTLKISRVEAEDVGVYYCSQSTHVPPTFGQGTKLEIK
notes: hL49 variant with the light chain CDR-L1 histidine 27D changed to alanine
B8: hL49_3X_Ala (antibody, V domains shown)
VH: QVQLQESGPGLVKPSETLSLTCTVSGDSITSGYWNWIRQPPGKGLEYIGYISDSGITYYNPSLKSRVTISRDTSKNQYSLKLSSVTAADTAVYYCARRTLATYYAMDYWGQGTLVTVSS
VL: DFVMTQSPLSLPVTLGQPASISCRASQSLVASDGNTYLAWYQQRPGQSPRLLIYRVSNRFSGVPDRFSGSGSGTDFTLKISRVEAEDVGVYYCSQSTAVPPTFGQGTKLEIK
notes: hL49 triple mutant: all three light chain CDR histidines (two in CDR-L1, one in CDR-L3) changed to alanine
B9: hL49_3X_Gln (antibody, V domains shown)
VH: QVQLQESGPGLVKPSETLSLTCTVSGDSITSGYWNWIRQPPGKGLEYIGYISDSGITYYNPSLKSRVTISRDTSKNQYSLKLSSVTAADTAVYYCARRTLATYYAMDYWGQGTLVTVSS
VL: DFVMTQSPLSLPVTLGQPASISCRASQSLVQSDGNTYLQWYQQRPGQSPRLLIYRVSNRFSGVPDRFSGSGSGTDFTLKISRVEAEDVGVYYCSQSTQVPPTFGQGTKLEIK
notes: hL49 triple mutant: all three light chain CDR histidines changed to glutamine; also called 3X-Gin

Key:
[1] = biological target: T1, human CD228 (R&D Systems Custom02; Lot …); experiment: ELISA, coated human CD228, pH 6.30
Method: (§1) Briefly, 100 ng of human CD228 (R&D Systems Custom02; Lot DCWR021505A) or BSA (Sigma; Catalog No. A7030-100G) were diluted in PBS and added to each well overnight at 4° C. Plates were then washed three times with PBS-T (EMD Millipore; Catalog No. 5246531EA). After washing, plates were blocked with 3% (w/v) BSA in PBS-T for 1 hour at room temperature. Excess blocking buffer was then removed and the primary antibody was added in 3-fold dilutions in diluent buffer (0.15M citrate-phosphate buffer pH 4.0-7.5) starting at an antibody concentration of 60 nM. After incubating for 1 hour at room temperature, the plates were washed 3 times and then incubated with secondary antibody (Goat anti-human IgG Fc-specific HRP-conjugated, Jackson ImmunoResearch code #109-035-098) in PBS-T with 1% BSA. After incubating for 30 minutes at room temperature, plates were washed 3 times. 100 μl TMB substrate (Life Technologies-, Cat #002023) was then added to each well. After incubating 10 minutes at room temperature, 100 μl H₂SO₄ was added to each well to stop the reaction, plates were covered with clear plate seal and read on an Envision at […]. pH-dependent binding for hL49 and nine variants with histidine substituted to alanine, glutamine, or tyrosine in the light chain CDRs are shown in FIG. 1A-1I. […] The triple mutants have lower affinity overall compared to hL49.

[2] = biological target: T2, CD228 on A375 and A2058 cells; experiment: flow cytometry saturation binding on A2058 cells (~40K receptors), neutral pH
Method: (§2) The ability of various anti-CD228 antibodies to bind to CD228 on A375 cells, A2058 cells, and CD228 protein was evaluated at neutral pH using a saturation binding assay. Briefly, 1×10⁵ A2058 or A375 cells that have either 40,000 or 18,000 copies of CD228 respectively, were aliquoted per well of a 96-well v-bottom plates. Each CD228 antibody was added in concentrations ranging from 0.66 pM to 690 nM and incubated on ice for 60 minutes. Cells were pelleted and washed 3× with PBS/BSA followed by addition of 10 μg/ml of a PE labeled anti-human IgG goat secondary antibody and incubated on ice for an additional 60 minutes. Cells were pelleted and washed 3× with PBS/BSA and resuspended in 125 μL of PBS/BSA. Fluorescence was analyzed by flow cytometry, using percent of saturated fluorescent signal to determine percent bound and to subsequently calculate apparent KID. […] The histidine 34 variants show large differences for substitutions with alanine, glutamine, and tyrosine.

[3] = biological target: T2, CD228 on A375 and A2058 cells; experiment: flow cytometry saturation binding on A375 cells (~18K receptors), neutral pH
Method: as §2

[4] = biological target: T1, human CD228 (R&D Systems Custom02; Lot …); experiment: ELISA on CD228 protein, neutral pH (rounded form of Table 2, pH 7.40)
[5] = biological target: T1, human CD228 (R&D Systems Custom02; Lot …); experiment: ELISA, coated human CD228, pH 7.40
Method: as §1

[6] = biological target: T1, human CD228 (R&D Systems Custom02; Lot …); experiment: BLI (Octet Red 384), antibody as ligand, antigen as analyte
Method: The binding kinetics of hL49, hL49_34Ala, and hL49_Tyr were determined using BioLayer Interferometry (BLI) technology in an Octet Red 384 instrument using the antibodies as the ligands and the antigen as the analyte. […] In contrast, hL49_34Tyr has a slower on-rate but a similar off-rate compared to wild-type hL49, which may explain its reduced affinity on cells.

[7] = biological target: T1, human CD228 (R&D Systems Custom02; Lot …); experiment: ELISA, coated human CD228, pH 5.60
Method: as §1

[8] = biological target: T1, human CD228 (R&D Systems Custom02; Lot …); experiment: ELISA, coated human CD228, pH 4.55
Method: as §1

Row | Binder | EC50 [1] | EC50 [2] | EC50 [3] | EC50 [4] | EC50 [5] | Kd [6] | kobs [6] | koff [6] | kon [6] | EC50 [7] | EC50 [8]
1 | B1 | 136 nM | 0.6 nM | 1.1 nM | 1.8 nM | 1.76 nM | 13.1 nM | 0.0853 s⁻¹ | 0.0011 s⁻¹ | 84200 M⁻¹ s⁻¹ | – | –
2 | B2 | – | 11.2 nM | 79 nM | – | – | 132 nM | 0.0113 s⁻¹ | 0.00132 s⁻¹ | 10000 M⁻¹ s⁻¹ | – | –
3 | B3 | 23.4 nM | 2.1 nM | 5.5 nM | 1.7 nM | 1.65 nM | – | – | – | – | 169 nM | –
4 | B4 | 16.5 nM | 1.3 nM | 1.6 nM | 1.2 nM | 1.2 nM | 15.8 nM | 0.282 s⁻¹ | 0.00438 s⁻¹ | 277000 M⁻¹ s⁻¹ | 271 nM | –
5 | B5 | 1.48 nM | 0.5 nM | 0.9 nM | 0.7 nM | 0.68 nM | – | – | – | – | 17.3 nM | 365 nM
6 | B6 | 74.6 nM | 1.3 nM | 2.1 nM | 5.4 nM | 5.43 nM | – | – | – | – | – | –
7 | B7 | 0.99 nM | 0.6 nM | 1.1 nM | 0.6 nM | 0.55 nM | – | – | – | – | 9.14 nM | 460 nM
8 | B8 | 73.8 nM | 0.9 nM | 1.4 nM | 4.5 nM | 4.46 nM | – | – | – | – | 405 nM | 108 nM
9 | B9 | 52.6 nM | 1.3 nM | 2.1 nM | 14.6 nM | 14.6 nM | – | – | – | – | – | –
